From patent EP1019524B1 come the findings set out here.

For this assay, the target named is HeLa cell PP1α (cellular PP1α in S10 fractions of HeLa cells) (human) (UniProt P62136). The assay is described as follows: cell-based or functional assay.
Chain of HeLa cell PP1α (cellular PP1α in S10 fractions of HeLa cells) (human) (P62136 2-330): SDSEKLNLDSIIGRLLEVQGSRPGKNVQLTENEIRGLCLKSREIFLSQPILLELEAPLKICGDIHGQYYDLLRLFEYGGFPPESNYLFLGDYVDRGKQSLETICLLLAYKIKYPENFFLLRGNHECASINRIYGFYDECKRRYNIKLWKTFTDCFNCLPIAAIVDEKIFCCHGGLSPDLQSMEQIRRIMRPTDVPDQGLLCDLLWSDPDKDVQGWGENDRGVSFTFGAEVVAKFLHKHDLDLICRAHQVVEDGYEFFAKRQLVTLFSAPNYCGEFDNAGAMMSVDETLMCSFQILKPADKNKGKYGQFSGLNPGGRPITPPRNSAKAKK

In turn, protein phosphatase Inhibitor 2 had a 50% reduction in the rate of dephosphorylation of eIF-2(α32P) by the S10 fraction from R8300 virus-infected cells of 120 µg/mL and a 50% reduction in the rate of dephosphorylation of eIF-2(α32P) by the S10 fraction from wild-type virus-infected cells of 90 µg/mL.

For “γ134.5 protein of HSV-1(F), from lysates of HSV-1(F) infected cells (from UniProt P36313 1-248)”, the 32P-phosphorylase phosphatase activity of HSV-1(F)-infected cells against mock-infected cells (fold of mock-infected cells) stood at 0.5 and the eIF-2(α32P) phosphatase activity of S10 fractions of wild type infected HeLa cells against mock-infected cells was 3000 fold.

In the case of “γ134.5-MyD116 chimeric protein expressed by recombinant virus R8300 (from UniProt P36313 1-175; P17564 540-657)”, the eIF-2(α32P) phosphatase activity of S10 fractions of R8300 infected HeLa cells against mock-infected cells was determined as 50 fold.
